Values quoted from earlier work, collected in paper PMC13242717.
pKd: −log10 of the molar value.

Biological target: spike protein (SARS-CoV-2) (UniProt P0DTC2)

**Q.** With spike protein (from UniProt P0DTC2) as the substance, how does the pKd read?
**A.** 6.52
